A word on the EC50 (read off the curve): it is the concentration that produces a half-maximal response. A word on the Kd: it is a measure of binding affinity in units of concentration. For orientation: koff means a measure of how fast the partners let go of each other. As a reminder, the kon is the rate constant with which the complex forms.

This is an account of results in patent publication US20250313644A1 (FUTUREGEN BIOPHARMACEUTICAL BEIJING, published 2025).

Assay [1] deals with T1, human TL1A (HuTL1A) (human, UniProt O95150 57-251, limits assumed, biotin-labelled in some assays (site not stated)).
T1 construct: Expressed in EXPI-293 cells and purified by Ni-NTA (His-tag); Described as a trimeric antigen; also called TL1A antigen; WT
T1 sequence: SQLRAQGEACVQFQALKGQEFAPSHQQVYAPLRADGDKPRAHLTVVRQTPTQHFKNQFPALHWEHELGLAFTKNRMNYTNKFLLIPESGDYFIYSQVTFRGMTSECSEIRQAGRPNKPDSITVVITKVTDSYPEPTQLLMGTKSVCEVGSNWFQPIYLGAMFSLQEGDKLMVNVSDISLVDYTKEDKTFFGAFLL
The experiment in a line: ELISA: biotin-HuTL1A on streptavidin plate, antibody diluted at pH 6.0, HRP-anti-human Fc, OD450. The procedure:
(§1) Corresponding antibodies were added to specific wells, and the antibodies were diluted with sodium dihydrogen phosphate-citrate buffer at pH 7.4, pH 6.0, pH 5.8, or pH 5.6. Binding assay was carried out at room temperature for 30 minutes. After the incubation, the excess antibodies were removed and the wells were washed by PBST. HRP-anti-Human Fc (Sino Biological) was then added into each well and incubated for 30 minutes to detect the bound antibody. The substrate TMB was finally added to develop color for 5-10 minutes. The color development reaction was terminated with 1M sulfuric acid. OD450 nm was recorded on a microplate reader, and the data were processed and fitted by 4 parameter logistic regression.
(ELISA stands for enzyme-linked immunosorbent assay.)

The target of assay [2] is T1, human TL1A (HuTL1A). Description: ELISA: biotin-HuTL1A on streptavidin plate, antibody diluted at pH 7.4, HRP-anti-human Fc, OD450. The method, then: as §1
The target in assay [3] is T1, human TL1A (HuTL1A). The assay is described as above. The procedure: as §1
This is another data set of the same source.

Assay [4] deals with T1, human TL1A (HuTL1A). Description: BLI (Gator), biotin-HuTL1A on SA probe, pH 7.4; BLI (Gator), pH 7.4. The method, then: The binding kinetics between monoclonal antibodies and antigens was measured using Gator, a label-free biomolecule interaction analyzer based on the principle of biolayer interference (BLI). […] Then a serial dilutions of single-arm M701 antibodies and control antibodies were added. The antibodies interacted with the antigen captured by the SA probe, and the interaction was analyzed by detecting the signal change of the reflection interference spectrum of the probe surface, and finally the binding kinetics constants of the antibodies were calculated. The kinetic constants of antigen and antibodies were measured at pH 7.4 and 5.6 in sodium dihydrogen phosphate-citrate buffer.

In assay [5] the target is T2, cynomolgus monkey/rhesus monkey TL1A (cynomolgus monkey/rhesus monkey).
T2 construct: also called Cynomolgus/rhesus monkey TL1A
Description: BLI (Gator), His-tagged TL1A on anti-His probe, pH 7.4. The method, then: (§2) Then a serial dilutions of single-arm M701 antibodies and control antibodies were added.

Assay [6] concerns the target T1, human TL1A (HuTL1A). Described as above. The procedure: as §2
The target of assay [7] is T1, human TL1A (HuTL1A). Description: cell-based or functional assay.
Assay [8] deals with T1, human TL1A (HuTL1A). Description: DLS, antigen and antibody mixed in equal moles. The procedure: 60 μM antigen and antibody was mixed in equal moles, incubated at room temperature for 30 minutes, and then the molecular size was detected using UNCLE or SEC.

Numbering of substitutions follows the chain as printed.

B1: single-arm antibody 4035 (antibody, human IgG1, kappa, L234A L235A)
heavy: ELQLQESGPGLVKPSETLSLTCAVSGISFNDFHWAWIRQPPGKGLEWIGDINHRGHTSYNPSLKSRVTVSVDTSKNQFSLKLSSVTAADTAVYYCARDYPNFTFDLWGQGTLVTVSSASTKGPSVFPLAPSSKSTSGGTAALGCLVKDYFPEPVTVSWNSGALTSGVHTFPAVLQSSGLYSLSSVVTVPSSSLGTQTYICNVNHKPSNTKVDKKVEPKSCDKTHTCPPCPAPEAAGGPSVFLFPPKPKDTLMISRTPEVTCVVVDVSHEDPEVKFNWYVDGVEVHNAKTKPREEQYNSTYRVVSVLTVLHQDWLNGKEYKCKVSNKALGAPIEKTISKAKGQPREPQVYTLPPCREEMTKNQVSLWCLVKGFYPSDIAVEWESNGQPENNYKTTPPVLDSDGSFFLYSKLTVDKSRWQQGNVFSCSVMHEALHNHYTQKSLSLSPG
light: not shown
chain: DKTHTCPPCPAPEAAGGPSVFLFPPKPKDTLMISRTPEVTCVVVDVSHEDPEVKFNWYVDGVEVHNAKTKPREEQYNSTYRVVSVLTVLHQDWLNGKEYKCKVSNKALGAPIEKTISKAKGQPREPQVCTLPPSREEMTKNQVSLSCAVKGFYPSDIAVEWESNGQPENNYKTTPPVLDSDGSFFLVSKLTVDKSRWQQGNVFSCSVMHEALHNHYTQKSLSLSPG
notes: Single-arm form of 3912; also called M701-4035
As to B1, the “EC50 (read off the curve)” value in assay [1] is roughly 1 nM; in assay [2], roughly 0.3 nM; in assay [3], roughly 0.3 nM.

B2: single-arm antibody 3672 (antibody, human IgG1, kappa, L234A L235A)
heavy: ELQLQESGPGLVKPSETLSLTCAVSGLSFTDFYWAWIRQPPGKGLEWIGEINHKGNTSYNPSLKSRVTVSIDTSKNQFSLKLSSVTAADTAVYFCARDFPNYTFDFWGQGTLVTVSSASTKGPSVFPLAPSSKSTSGGTAALGCLVKDYFPEPVTVSWNSGALTSGVHTFPAVLQSSGLYSLSSVVTVPSSSLGTQTYICNVNHKPSNTKVDKKVEPKSCDKTHTCPPCPAPEAAGGPSVFLFPPKPKDTLMISRTPEVTCVVVDVSHEDPEVKFNWYVDGVEVHNAKTKPREEQYNSTYRVVSVLTVLHQDWLNGKEYKCKVSNKALGAPIEKTISKAKGQPREPQVYTLPPCREEMTKNQVSLWCLVKGFYPSDIAVEWESNGQPENNYKTTPPVLDSDGSFFLYSKLTVDKSRWQQGNVFSCSVMHEALHNHYTQKSLSLSPG
light: not shown
chain: B1 chain
notes: also called M701-3672
As for B2, the “EC50 (read off the curve)” value in assay [2] and in assay [3] was roughly 3 nM throughout.

B3: single-arm antibody M701-3952 (antibody, human IgG1, kappa, L234A L235A)
heavy: B1 heavy with I27V, N30S, F32Y, S58N, V71I, Y94F, Y99F, T103I, L106Y
light: not shown
chain: B1 chain
Turning to B3, the results for the Kd in assay [4], in assay [5] and in assay [6] were 5.25 nM, 5.75 nM and 5.68 nM, respectively. Moreover, the figures for the koff in assay [4], in assay [5] and in assay [6] were 0.00306 s⁻¹, 0.0036 s⁻¹ and 0.00346 s⁻¹, respectively. Moreover, the kon is 582000 M⁻¹ s⁻¹ in assay [4], 626000 M⁻¹ s⁻¹ in assay [5] and 610000 M⁻¹ s⁻¹ in assay [6]. Also, the “EC50 (read off the curve)” value in assay [2] and in assay [3] was roughly 0.5 nM throughout.

B4: single-arm antibody 3900 (antibody, human IgG1, kappa, L234A L235A)
heavy: EVQLQESGPGLVKPSETLSLTCAVSGVSYSDYHWAWIRQPPGKGLEWIGDINHKGKTNYNPSLKSRVTISVDTSKNQFSLKLSSVTAADTAVYYCARDYPNFLFDYWGQGTLVTVSSASTKGPSVFPLAPSSKSTSGGTAALGCLVKDYFPEPVTVSWNSGALTSGVHTFPAVLQSSGLYSLSSVVTVPSSSLGTQTYICNVNHKPSNTKVDKKVEPKSCDKTHTCPPCPAPEAAGGPSVFLFPPKPKDTLMISRTPEVTCVVVDVSHEDPEVKFNWYVDGVEVHNAKTKPREEQYNSTYRVVSVLTVLHQDWLNGKEYKCKVSNKALGAPIEKTISKAKGQPREPQVYTLPPCREEMTKNQVSLWCLVKGFYPSDIAVEWESNGQPENNYKTTPPVLDSDGSFFLYSKLTVDKSRWQQGNVFSCSVMHEALHNHYTQKSLSLSPG
light: not shown
chain: B1 chain
notes: also called M701-3900
Take B4: the “EC50 (read off the curve)” value in assay [1] is roughly 0.9 nM; in assay [2], roughly 0.5 nM; in assay [3], roughly 0.5 nM.

B5: single-arm antibody M701-3990 (antibody, human IgG1, kappa, L234A L235A)
heavy: B1 heavy with I27V, N30T, F32Y, S58N, V71I, T103I, F104Y, L106Y
light: not shown
chain: B1 chain
notes: Single-arm form of 4019
On to B5, for which the Kd in assay [4] was determined as 4.26 nM; in assay [5] it was 4.51 nM; in assay [6], 4.89 nM. Besides, the results for the off-rate constant (koff) in assay [4], in assay [5] and in assay [6] were 0.00168 s⁻¹, 0.00208 s⁻¹ and 0.00214 s⁻¹, respectively. Moreover, the kon in assay [4] was 394000 M⁻¹ s⁻¹; in assay [5] it was 462000 M⁻¹ s⁻¹; in assay [6], 438000 M⁻¹ s⁻¹. In addition, the figures for the “EC50 (read off the curve)” value in assay [1], in assay [2] and in assay [3] were roughly 1 nM, roughly 0.4 nM and roughly 0.4 nM, respectively.

B6: M701-3756 (antibody, human IgG1, kappa, L234A L235A, V domains shown)
VH: ELQLQESGPGLVKPSETLSLTCAVSGLSFTDFYWAWIRQPPGKGLEWIGEINHKGNTSYNPSLKSRVTVSIDTSKNQFSLKLSSVTAADTAVYFCARDFPNYTFDFWGQGTLVTVSS
VL: DIQLTQSPGTLSLSPGERATLSCRASQSVSNHLAWYQQKPGQAPRLLIYGASKRATGIPDRFSGSGSGTDFTLTISRLEPEDFAVYYCQQYADAPLTFGQGTKVEIKR
notes: Fc-engineered IgG1; from the original phage library
Consider B6, for which the “IC50 (read off the curve); SEAP reporter in HEK293T/DR3-NFκB cells with soluble TL1A, OD655” value in assay [7] was roughly 1 nM. The “Ave Z-dia (nm) of the antigen-antibody complex” value (“Ave Z-dia (nm)” for short) in assay [8] was found to be 19.1 nm.

B7: M701-3876 (antibody, human IgG1, kappa, L234A L235A, V domains shown)
VH: EVQLQESGPGLVKPSETLSLTCAVSGVSYSDYHWAWIRQPPGKGLEWIGDINHKGKTNYNPSLKSRVTISVDTSKNQFSLKLSSVTAADTAVYYCARDYPNFLFDYWGQGTLVTVSS
VL: B6 VL with D1A, L4M, N31S, K53R, D60A, A94S
notes: Fc-engineered IgG1
Regarding B7, in assay [7], the “IC50 (read off the curve); SEAP reporter in HEK293T/DR3-NFκB cells with soluble TL1A, OD655” value was roughly 1 nM. Moreover, the “Ave Z-dia (nm)” value in assay [8] stood at 18.7 nm.

B8: M701-3912 (antibody, human IgG1, kappa, L234A L235A, V domains shown)
VH: ELQLQESGPGLVKPSETLSLTCAVSGISFNDFHWAWIRQPPGKGLEWIGDINHRGHTSYNPSLKSRVTVSVDTSKNQFSLKLSSVTAADTAVYYCARDYPNFTFDLWGQGTLVTVSS
VL: DIQMTQSPATLSLSPGERATLSCRASQSVSTYLAWYQQKPGQAPRLLIYGASRRATGIPARFSGSGSGTDFTLTISSLQSEDFAVYYCQQYGDTPLTFGQGTKVEIKR
notes: Fc-engineered IgG1
On to B8, for which, in assay [8], the “Ave Z-dia (nm)” value is 18.5 nm.
